These results are taken from EP2057188B1.

“And” between values parts separate entries of the source, which are not always exact repeats. Equal entries are not always repeated. Where two headings read alike, the source gives them in different places.

The IC50 is the concentration at which inhibition is half-maximal. Read a high IC50 as weaker potency in that assay.

Assay [1] has as its target T1, GIP Receptor (Rattus norvegicus (Rat)), P43219.
T1 chain: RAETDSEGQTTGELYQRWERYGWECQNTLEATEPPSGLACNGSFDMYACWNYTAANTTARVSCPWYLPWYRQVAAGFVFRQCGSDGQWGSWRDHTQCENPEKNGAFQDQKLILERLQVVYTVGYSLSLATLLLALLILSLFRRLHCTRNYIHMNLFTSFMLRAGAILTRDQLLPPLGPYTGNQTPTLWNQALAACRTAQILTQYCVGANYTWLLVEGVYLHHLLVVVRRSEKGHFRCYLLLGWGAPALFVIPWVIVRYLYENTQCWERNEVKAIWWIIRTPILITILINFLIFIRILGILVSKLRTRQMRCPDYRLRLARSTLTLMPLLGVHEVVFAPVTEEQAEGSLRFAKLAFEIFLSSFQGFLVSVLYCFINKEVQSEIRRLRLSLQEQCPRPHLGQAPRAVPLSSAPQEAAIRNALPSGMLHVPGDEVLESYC
Put plainly: cell-based or functional assay.

In assay [2] the target is T1, GIP Receptor (Rattus norvegicus (Rat)), …. Put plainly: cell-based or functional assay.
For assay [3], the target named is T2, human GIP receptor (human), P48546.
T2 chain: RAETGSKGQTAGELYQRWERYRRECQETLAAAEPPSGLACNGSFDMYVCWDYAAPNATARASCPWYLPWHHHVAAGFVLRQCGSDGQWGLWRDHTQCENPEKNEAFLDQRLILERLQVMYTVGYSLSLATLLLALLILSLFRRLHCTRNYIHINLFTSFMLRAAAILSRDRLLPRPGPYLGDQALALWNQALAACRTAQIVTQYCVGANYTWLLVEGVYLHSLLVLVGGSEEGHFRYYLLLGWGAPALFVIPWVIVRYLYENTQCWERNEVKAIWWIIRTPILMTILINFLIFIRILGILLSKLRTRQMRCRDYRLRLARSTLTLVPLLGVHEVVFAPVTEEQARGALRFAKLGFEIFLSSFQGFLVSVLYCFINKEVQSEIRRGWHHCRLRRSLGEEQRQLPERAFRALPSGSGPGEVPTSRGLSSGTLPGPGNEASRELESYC
Put plainly: 125I-GIP displacement, HEK-GIPR.

In assay [4] the target is T1, GIP Receptor (Rattus norvegicus (Rat)), …. Description: GIP RBA.
For assay [5] the target is unchanged. Put plainly: GIP RBA, RIN.
Assay [6] addresses T2, human GIP receptor (human), P48546. Description: 125I-GIP displacement, 10 nM analog, HEK-GIPR.
The target is the same in assay [7]. Description: 125I-GIP displacement, HEK-GIPR.

Consider YAEGTFISDYSIAMDKIHQQDFVNWLLAQKPSSGAPPPS (modifications not checked) [0601GIP4178], for which the Cyclase in assay [1] amounted to 36.2; in assay [2] it was 96. For the same molecule, the IC50 in assay [3] was 0.17 nM.

Take YAEGTFISDYSIAMDKIHQQDFVNWLLAQKPSSGAPPPS (modifications not checked) [0601GIP4252]: the Cyclase in assay [1] was determined as 154. Besides, the half-maximal inhibitory concentration (IC50) in assay [4] stood at 5.6 nM.

As to YSDGTFISDYSIAMDKIHQQDFVNWLLAQKPKKIRYS (modifications not checked) [0601GIP4386], the GIPR Cyclase in assay [2] was 56. The concentration for half-maximal inhibition (IC50) in assay [5] was 156 nM.

Turning to YAEGTFISDYSIAMDKIHQQDFVNWLLAQKPKKIRYS (modifications not checked) [0601GIP4233], the %Inh 10nM in assay [6] turned out to be 89%. Moreover, the IC50 in assay [7] is 0.12 nM and 0.41 nM; in assay [3] it was 0.21 nM.
